Test results published in the supplement of paper PMC7125110.
± gives the standard error. For some of these results: Variants at the floor of the assay were thinned out.

B1: glmS ribozyme (parent)
chain: AUAAAAGCGCCAGAACUACAGAAAUGUAGUUGACGAGGAGGAGGUUUAUCGAAUUUUCGGCGGAUGCCUCCAAA

Key:
Settings in all cases: with glucosamine-6-phosphate
[1] = variants of: B1; test: kcat; higher = faster cleavage; RNA array
Summary of the method: (§1)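 Tiles of sequenced MiSeq chips were imaged over ~14 h at 37 °C. On them, barcoded ribozyme variants had been transcribed in situ by E. coli RNA polymerase and were tracked via a hybridised Cy3 probe while glucosamine-6-phosphate (40 μM to 10 mM) in HEPES/KCl/Mg(OAc)2 buffer flowed in. Per-tile medians, normalised to baseline and to non-cleaving reference variants, were fit to one- or two-exponential decays for kobs, and weighted Michaelis–Menten fits gave kcat and KM.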

[2] = variants of: B1; test: self-cleavage kobs at 40 uM GlcN6P; higher = faster cleavage; RNA array
Summary of the method: as §1

[3] = variants of: B1; test: KM; higher = weaker cofactor use; RNA array
Summary of the method: as §1

[4] = variants of: B1; test: self-cleavage kobs at 160 uM GlcN6P; higher = faster cleavage; RNA array
Summary of the method: as §1

[5] = variants of: B1; test: self-cleavage kobs at 640 uM GlcN6P; higher = faster cleavage; RNA array
Summary of the method: as §1

[6] = variants of: B1; test: self-cleavage kobs at 2500 uM GlcN6P; higher = faster cleavage; RNA array
Summary of the method: as §1

[7] = variants of: B1; test: self-cleavage kobs at 10000 uM GlcN6P; higher = faster cleavage; RNA array
Summary of the method: as §1

Variant	kcat [1] [s⁻¹]	self-cleavage kobs at 40 uM GlcN6P [2] [s⁻¹]	KM [3] [µM]	self-cleavage kobs at 160 uM GlcN6P [4] [s⁻¹]	self-cleavage kobs at 640 uM GlcN6P [5] [s⁻¹]	self-cleavage kobs at 2500 uM GlcN6P [6] [s⁻¹]	self-cleavage kobs at 10000 uM GlcN6P [7] [s⁻¹]
C16G A33G	< 1e-05	< 1e-05	–	–	–	–	–
U45A U47G	0.0105 ± 0.0027	0.000279 ± 6e-05	1910 ± 690	0.000689 ± 0.00013	0.00261 ± 0.00054	0.00915 ± 0.0018	0.00802 ± 0.0015
G13U U55G	0.00153 ± 0.00021	2.48e-05 ± 7.6e-06	3830 ± 780	6.37e-05 ± 8.5e-06	0.000195 ± 2.5e-05	0.000643 ± 7.1e-05	0.00109 ± 0.00011
A12C C71G	0.000645 ± 0.00023	4.39e-05 ± 8.5e-06	–	0.000153 ± 2.4e-05	0.000264 ± 3e-05	0.000424 ± 7.3e-05	0.00109 ± 0.00015
A39G U47A	0.0304 ± 0.014	0.00119 ± 0.00019	–	0.00231 ± 0.00088	0.00788 ± 0.0025	0.0164 ± 0.005	0.0441 ± 0.011
G7U G66U C70G	< 1e-05	–	–	–	–	< 1e-05	–
U55C A64C	1.63e-05 ± 1.9e-06	–	–	< 1e-05	–	–	–
A33U U65A	3.37e-05 ± 1.5e-06	< 1e-05	–	< 1e-05	< 1e-05	–	–
U65A C70A	7.41e-05 ± 5e-06	–	128 ± 49	4.4e-05 ± 1.4e-05	5.79e-05 ± 1.2e-05	6.44e-05 ± 1.3e-05	8.15e-05 ± 1.3e-05
A64G G66A	0.0158 ± 0.0059	0.000837 ± 9.3e-05	936 ± 460	0.00197 ± 0.00028	0.00554 ± 0.0008	0.0124 ± 0.0025	0.0215 ± 0.0052
A12U C61G	< 1e-05	< 1e-05	–	–	–	–	–
A12G U47A	0.00138 ± 0.00029	–	5500 ± 1600	–	0.000152 ± 1.9e-05	0.000455 ± 7.1e-05	0.000864 ± 0.00013
C10A A14C C71A	2.17e-05 ± 9.3e-06	–	–	–	–	–	–
C58U G59U	< 1e-05	< 1e-05	–	–	< 1e-05	–	< 1e-05
G29A U30G	0.00554 ± 0.0022	0.000159 ± 2.5e-05	–	0.000288 ± 5.9e-05	0.00125 ± 0.00029	0.0021 ± 0.00068	0.00513 ± 0.00085
A6C U65G	2.87e-05 ± 1.5e-06	–	342 ± 150	–	–	–	2.71e-05 ± 1.1e-05
G13A G29U	5.33e-05 ± 7.9e-06	–	–	–	–	4.84e-05 ± 1e-05	4.7e-05 ± 8e-06
